The source of these data is patent publication US20100278838A1, “EPHA2 MONOCLONAL ANTIBODIES AND METHODS OF USE THEREOF” (MEDIMMUNE, LLC, priority 2002, published 2010).

Assay [1] deals with MDA-MB-231 breast cancer cells implanted orthotopically. As to the kind of experiment: Tumor growth in vivo, MDA-MB-231 implanted orthotopically. More on the design: species or system athymic mice. To be noted: 6mg/kg intraperitoneally twice a week for 3 weeks; versus PBS or 1A7. On the procedure:
FIGS. 7A-7D: The EphA2 antibodies, EA2, Eph099B-208.261, and Eph099B-233.152, inhibit tumor cell growth in vivo. MDA-MB-231 breast cancer cells were implanted (A) orthotopically or (B) subcutaneously into athymic mice. (C) A549 lung cancer cells were implanted subcutaneously into athymic mice. After the tumors had grown to an average volume of 100 mm^3, mice were administered 6 mg/kg of the indicated antibody or negative control (PBS or 1A7 antibody) intraperitoneally twice a week for 3 weeks. Tumor growth was assessed and expressed as a ratio of the tumor volume divided by initial tumor volume (100 mm^3). (D) MDA-MB-231 breast cancer cells were implanted subcutaneously into athymic mice. After the tumors had grown to an average volume of 100 mm^3, mice were administered 6 mg/kg of the indicated antibody or negative control intraperitoneally twice a week for 3 weeks. Total tumor volume was determined after sacrifice. Negative control is black, EA2 is white, Eph099B-208.261 is dark grey, and Eph099B-233.152 is light grey.
5×10^6MDA-MB-231 breast cancer cells were implanted orthotopically or subcutaneously and 5×10^6 A549 lung cancer cells were implanted subcutaneously into athymic mice. […] Tumor growth was assessed and expressed either as a ratio of the tumor volume divided by initial tumor volume (100 mm^3) or as total tumor volume. […]

Assay [2] relates to EphA2 on transformed MDA-MB-231 cells. Put plainly: Flow cytometry of EA2 binding, transformed cells with or without EGTA. The format is cell-based. The note with it: 10 μg/ml EA2; 4 mM EGTA 10-15 minutes on ice. Here is the method:
(A, B) Non-transformed MCF-10A cells were labeled with EA2 at 4° C. either before (A) or after (B) treatment with EGTA and prior to fixation and immunolabeling with fluorophore-conjugated anti-mouse IgG. (C, D) Non-transformed MCF-10A (C) or transformed MDA-MB-231 (D) cells were labeled with EA2 either before (middle) or after (top) treatment with EGTA. Control cells were incubated with secondary antibody alone (bottom). The amount of EA2-EphA2 binding was measured using flow cytometry.
An equivalent experiment was performed using MCF-10A or MDA-MB-231 cells. The amount of EA2 binding to EphA2 was measured using flow cytometry (FIGS. 17C-17D). Cells were either treated by incubation in 4 mM EGTA for 10-15 minutes on ice (top panel) or were not treated with EGTA (middle panel) before incubation with 10 μg/ml EA2. Cells were then fixed with 3% formalin and labeled with fluorophore-labeled donkey anti-mouse IgG. Control cells were incubated only with secondary antibody (fluorophore-labeled donkey anti-mouse IgG) in the absence of primary antibody (EA2) (bottom panel). The samples were then evaluated using flow cytometry (Becton Dickinson FACStar Plus).
(In general: In flow cytometry, cells or beads pass a laser one at a time.)

B1: EA2: EphA2 agonistic monoclonal antibody; ATCC deposit no. PTA-4380; co-pending application Ser. No. 10/436,783; VL SEQ ID NO:33, VH SEQ ID NO:37 (antibody, listed as Homo Sapiens, V domains shown)
VH: DVKLVESGGGLVKPGGSLKLSCAASGFTFSSYTMSWVRQTPEKRLEWVATISSGGTYTYYPDSVKGRFTISRDNAKNTLYLQMSSLKSEDTAMYYCTREAIFTYWGQGTLVTVSA
VL: DIKMTQSPSSMYASLGERVTITCKASQDINNYLSWFQQKPGKSPKTLIYRANRLVDGVPSRFSGSGSGQDYSLTISSLEYEDMGIYYCLKYDEFPYTFGGGTKLEIK
B1: the “Growth of MDA-MB-231 cells implanted orthotopically” value in assay [1] is listed as “inhibited”. Besides, the “Effect of EGTA treatment on EA2 binding, transformed cells” value in assay [2] was “did not affect”.
